Consider one substance from article doi:10.1101/2025.03.24.644895.

The target of this experiment is Avi-tagged human eIF4A1 full length (human) (UniProt P60842). Kind of experiment: SPR. (In general: In SPR one partner is held on a chip, and binding of the other changes the refractive index at the surface.)
Chain of Avi-tagged human eIF4A1 full length (human) (P60842 whole entry): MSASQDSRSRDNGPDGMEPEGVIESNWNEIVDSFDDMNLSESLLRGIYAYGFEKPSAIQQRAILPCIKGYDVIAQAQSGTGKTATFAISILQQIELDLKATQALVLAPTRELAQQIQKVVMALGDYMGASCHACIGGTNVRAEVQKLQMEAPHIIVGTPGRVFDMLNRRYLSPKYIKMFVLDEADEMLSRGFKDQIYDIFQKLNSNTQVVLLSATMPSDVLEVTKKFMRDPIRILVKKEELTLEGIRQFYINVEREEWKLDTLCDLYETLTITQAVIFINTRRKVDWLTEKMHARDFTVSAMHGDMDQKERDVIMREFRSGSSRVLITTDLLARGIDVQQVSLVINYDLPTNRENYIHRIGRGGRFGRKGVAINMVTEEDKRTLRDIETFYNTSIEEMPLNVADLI

Turning to “eIF4G-MIF (middle domain of eIF4G, residues 712-1011) (domain or fragment)”, the fold increase in binding affinity with hippuristanol against no compound was found to be 5 fold.
